Publication PMC8799657 (Nature Communications, 2022)

B1: Fab fragment of the mouse/human chimeric 128.1 IgG1 antibody (Fab, V domains shown)
VH: EVQLQQSGPELVKPGASMKISCKASGYSFTGYTMNWVKQSHGENLEWIGRINPHNGGTDYNQKFKDKAPLTVDKSSNTAYMELLSLTSGDSAVYYCARGYYYYSLDYWGQGTSVTVSS
VL: QIVLTQSPAIMSVSPGEKVTMTCSASSSIRYIHWYQQRPGTSPKRWIYDTSNLASGVPARFSGSGSGTSYSLTISSMEAEDAATYYCHQRNSYPWTFGGGTRLEIR
notes: also called Fab ch128.1/IgG1; ch128.1 Fab
B2: mouse/human chimeric IgG1/κ antibody ch128.1/IgG1 (antibody, V domains shown)
VH: B1 VH
VL: B1 VL

Columns and labels:
[1] = target: T1, soluble human transferrin receptor 1 (human, UniProt P02786); experiment: BLI; details: both partners purified
T1 construct: also called sTfR1; human sTfR1

[2] = target: T2, human transferrin receptor 1 on the cell surface (human (endogenous in erythroblasts), UniProt P02786); details: one partner purified
T2 construct: also called hTfR1; TfR1
T2 sequence (P02786 whole entry): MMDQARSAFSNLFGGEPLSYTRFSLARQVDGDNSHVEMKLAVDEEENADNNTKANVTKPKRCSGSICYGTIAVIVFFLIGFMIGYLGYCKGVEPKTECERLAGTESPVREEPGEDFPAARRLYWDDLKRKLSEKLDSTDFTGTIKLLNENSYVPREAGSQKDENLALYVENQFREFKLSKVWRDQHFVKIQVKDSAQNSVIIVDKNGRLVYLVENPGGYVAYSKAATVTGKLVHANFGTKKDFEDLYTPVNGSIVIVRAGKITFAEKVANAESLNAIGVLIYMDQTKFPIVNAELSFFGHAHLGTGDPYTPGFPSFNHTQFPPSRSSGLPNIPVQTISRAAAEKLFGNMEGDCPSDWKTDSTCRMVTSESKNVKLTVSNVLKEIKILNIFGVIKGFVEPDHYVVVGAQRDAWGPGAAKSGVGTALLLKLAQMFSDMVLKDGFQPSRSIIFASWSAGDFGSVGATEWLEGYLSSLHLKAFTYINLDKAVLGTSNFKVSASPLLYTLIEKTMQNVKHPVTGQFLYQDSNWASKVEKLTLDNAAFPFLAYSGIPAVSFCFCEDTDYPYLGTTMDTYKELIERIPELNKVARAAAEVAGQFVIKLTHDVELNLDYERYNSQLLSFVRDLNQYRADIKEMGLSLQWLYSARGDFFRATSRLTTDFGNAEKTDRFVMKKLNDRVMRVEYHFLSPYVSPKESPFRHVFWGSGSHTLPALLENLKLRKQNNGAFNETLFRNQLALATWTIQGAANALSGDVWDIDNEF

T1 sequence (P02786 121-760): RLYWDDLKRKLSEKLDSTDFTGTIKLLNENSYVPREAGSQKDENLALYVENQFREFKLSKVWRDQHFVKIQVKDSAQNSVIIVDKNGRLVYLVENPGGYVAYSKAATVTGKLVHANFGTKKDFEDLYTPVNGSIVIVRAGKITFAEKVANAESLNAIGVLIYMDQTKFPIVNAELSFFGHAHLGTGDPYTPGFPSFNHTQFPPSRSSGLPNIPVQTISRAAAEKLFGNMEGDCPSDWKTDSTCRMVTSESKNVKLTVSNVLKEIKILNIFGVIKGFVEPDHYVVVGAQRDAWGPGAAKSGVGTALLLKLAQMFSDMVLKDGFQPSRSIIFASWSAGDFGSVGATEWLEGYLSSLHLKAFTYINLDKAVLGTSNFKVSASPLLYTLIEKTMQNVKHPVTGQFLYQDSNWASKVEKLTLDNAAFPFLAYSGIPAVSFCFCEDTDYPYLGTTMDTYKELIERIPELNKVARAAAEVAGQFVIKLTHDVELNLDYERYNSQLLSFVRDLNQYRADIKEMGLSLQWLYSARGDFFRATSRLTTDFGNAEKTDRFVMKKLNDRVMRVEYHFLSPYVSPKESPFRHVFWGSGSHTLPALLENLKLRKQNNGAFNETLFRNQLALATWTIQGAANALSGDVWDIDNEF

Row | Binder | binding result [1] | binding result [2]
1 | B1 | binds | 
2 | B2 |  | binds
